Bridge positions count the residues as written; N and C are the ends. Square brackets hold non-standard residues; d marks the D form. NOTA‑1 = 1,4,7-triazacyclononane-N,N',N''-triacetic acid phenyl thiourea; Pro(trans-4-Ph) = O=C(O)[C@@H]1C[C@@H](c2ccccc2)CN1; Trp(7-Me) = Cc1cccc2c(C[C@H](N)C(=O)O)c[nH]c12; Pro(trans-4-F) = O=C(O)[C@@H]1C[C@@H](F)CN1; Pro(cis-4-F) = O=C(O)[C@@H]1C[C@H](F)CN1; Phe(4-F) = N[C@@H](Cc1ccc(F)cc1)C(=O)O; Phe(4-Me) = Cc1ccc(C[C@H](N)C(=O)O)cc1; Pro(4S-Me) = C[C@@H]1CN[C@H](C(=O)O)C1; Pro(4R-Me) = C[C@H]1CN[C@H](C(=O)O)C1 Where only a bound is given, the exact number is not on record here.

We go through 11 molecules from US20260207798A1, “CYCLIC PEPTIDES AS PET IMAGING AGENTS OF GRANZYME B” (priority 2022, published 2026).

For experiment [1], the target named is T1, Human Granzyme B (Homo sapiens, UniProt P10144). It is filed as in vivo. More on the design: Ten million human peripheral blood mononuclear cell (PBMC) were engrafted in immunocompromised NOG (NOD/Shi-scid/IL-2Rγ) mice; endogenous in cells; host or cells: human PBMC (donor-derived) engrafted in NOG mice. To be noted: 18F-labeled peptides, i.v., mice, static PET/CT 1 h after injection. The procedure:
Diseased model: Graft versus host disease (GvHD) model was selected to evaluate radiolabeled granzyme-B peptides due to presence of human granzyme-B after onset of disease. Ten million human peripheral blood mononuclear cell (PBMC) were engrafted in immunocompromised NOG (NOD/Shi-scid/IL-2Rγ) mice. Body weight was monitored routinely, once the mice started to lose weight (indication of onset of disease), PET/CT scans were performed. To determine target specificity, NOG mice without human PBMC were used as control. […] Mice were intravenously injected with approximately 150 uCi (35 Ci/mmol) of ^18F-labeled peptides and 45-minute whole body static PET/CT scans were performed 1 h after injection. Attenuation correction was performed using low-dose CT scan.

The target in experiment [2] is T1, Human Granzyme B. Put plainly: Binding of scrambled control peptide to human granzyme-B (method not given). More on the design: Ten million human peripheral blood mononuclear cell (PBMC) were engrafted in immunocompromised NOG (NOD/Shi-scid/IL-2Rγ) mice; endogenous in cells; host or cells: human PBMC (donor-derived) engrafted in NOG mice.
Experiment [3] addresses T2, human Granzyme B (human, UniProt P10144 21-247).
T2 construct: Captured on a Series S Streptavidin chip for SPR; also called hGranzyme B; GzmB
Put plainly: SPR, Biacore 8k+, hGranzyme B captured on SA chip, single cycle kinetics, 1:1 model; Compound 86a, observed m/z 912.9. Here is the method:
(§1) The kinetics of test peptide binding to human Granzyme B (hGranzyme B) was determined by SPR. All experiments were performed at 25° C. using the Biacore 8k+ instrument (Cytiva, Marlborough, MA). The Biacore 8k+ Insight Evaluation Software Version 3.0 was used to fit the data with a 1:1 binding model to determine the association rate constant kₐ (M⁻¹s⁻¹, where “M” ~equals molar and “s” ~equals seconds) and the dissociation rate constant kd (s⁻¹). These rate constants were used to calculate the equilibrium dissociation constant. KD (M)=kd/kₐ.
(§2) To measure the binding kinetics of peptides of interest, surfaces were prepared by a capture method to a Series S Streptavidin (SA) chip using a 1×HBS-EP+ running buffer (Cytiva). hGranzyme B was diluted to 10 μg/mL in IX HBS-EP+ and flowed over spot 2 of each flow cell on the chip at a flow rate of 10 ul/min for 20 s to achieve a level of capture of ~1100 RU. […] Binding kinetics were measured using single cycle kinetics at 25° C. by injecting 5 concentrations with 3-fold serial dilutions of test peptides from 0.01 μM to 1 μM. […]
(§3) Peptide dilution series included 2 zero concentration points (no compound) which were averaged and subtracted from the peptide concentration injection as DMSO control responses. […] Corrected response data were analyzed using the Biacore 8k+ Evaluation Software Version 3.0 according to the manufacturer. […]

In experiment [4] the target is T2, human Granzyme B. The experiment can be described thus: SPR, Biacore 8k+, hGranzyme B captured on SA chip, single cycle kinetics, 1:1 model; Compound 66a, observed m/z 912.5. The procedure: as §1, §2, §3
Experiment [5] has as its target T2, human Granzyme B. Put plainly: SPR, Biacore 8k+, hGranzyme B captured on SA chip, single cycle kinetics, 1:1 model; Compound 83a, observed m/z 913.2. Here is the method:
as §1, §2, §3

For experiment [6], the target named is T2, human Granzyme B. The experiment can be described thus: SPR, Biacore 8k+, hGranzyme B captured on SA chip, single cycle kinetics, 1:1 model; Compound 42a, observed m/z 944.0. Here is the method:
as §1, §2, §3

Experiment [7] addresses T2, human Granzyme B. Put plainly: SPR, Biacore 8k+, hGranzyme B captured on SA chip, single cycle kinetics, 1:1 model; Compound 69a, observed m/z 912.6. The procedure:
as §1, §2, §3

For experiment [8], the target named is T2, human Granzyme B. Put plainly: cell-based or functional assay.
For experiment [9], the target named is T2, human Granzyme B. The experiment can be described thus: SPR, Biacore 8k+, hGranzyme B captured on SA chip, single cycle kinetics, 1:1 model; Compound 25a, observed m/z 905.8. The procedure: as §1, §2, §3
In experiment [10] the target is T2, human Granzyme B. The experiment can be described thus: SPR, Biacore 8k+, hGranzyme B captured on SA chip, single cycle kinetics, 1:1 model; Compound 38a, observed m/z 914.7. Here is the method: as §1, §2, §3
In experiment [11] the target is T2, human Granzyme B. The experiment can be described thus: SPR, Biacore 8k+, hGranzyme B captured on SA chip, single cycle kinetics, 1:1 model; Compound 40a, observed m/z 915.0. Here is the method: as §1, §2, §3
The target of experiment [12] is T2, human Granzyme B. Put plainly: SPR, Biacore 8k+, hGranzyme B captured on SA chip, single cycle kinetics, 1:1 model; Compound 62a, observed m/z 914.7. Here is the method:
as §1, §2, §3

Experiment [13] has as its target T2, human Granzyme B. Put plainly: SPR, Biacore 8k+, hGranzyme B captured on SA chip, single cycle kinetics, 1:1 model; Compound 41a, observed m/z 912.9. The procedure: as §1, §2, §3

T2 sequence (P10144 21-247 limits assumed): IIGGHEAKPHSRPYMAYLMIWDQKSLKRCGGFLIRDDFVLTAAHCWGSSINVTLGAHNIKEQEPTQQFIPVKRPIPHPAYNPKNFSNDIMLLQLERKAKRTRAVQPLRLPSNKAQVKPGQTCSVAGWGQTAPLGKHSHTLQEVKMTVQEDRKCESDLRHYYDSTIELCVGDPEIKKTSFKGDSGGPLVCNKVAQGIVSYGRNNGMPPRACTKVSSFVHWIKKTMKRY
T1 sequence (P10144 21-247): as the sequence (P10144 21-247 limits assumed) above

“*F.Q.W.Q.A.S.N.E.D.D.T.P.F.*C.G.G.K(NOTA-1)·NH2) ({CH2CO}-FQWQASNEDDTPFCGGK(NOTA‑1)-NH2; thioether N-14) [scrambled peptide, 18F-labeled scrambled peptide used as negative control, reference compound]”: the “uptake (SUVmean) in lung, liver and bone, GvHD model versus NOG control” value with Human Granzyme B [1] is “No significant difference was observed between lung, liver, and bone in GvHD model and NOG control”. For the same molecule, in the experiment with Human Granzyme B [2], the “binding to human granzyme-B” value is “minimal/no binding”.

As to {CH2CO}-FN[Phe(4-Me)]EDQSPDTWQPCG-NH2 (thioether N-14) [Compound 86a], binding with human Granzyme B [3] was characterised by a dissociation constant (Kd) of 579 nM. {CH2CO}-FNFEDQSPDT[Trp(7-Me)]QPCG-NH2 (thioether N-14) [Compound 66a] showed a Kd with human Granzyme B [4] of 11.1 nM. For {CH2CO}-FNFEDQS[Pro(4R-Me)]DTWQPCG-NH2 (thioether N-14) [Compound 83a], binding in the experiment with human Granzyme B [5] was characterised by a dissociation constant (Kd) of 48 nM. That is a double-digit nanomolar value. In turn, {CH2CO}-FNFEDQSPDTWQ[Pro(trans-4-Ph)]CG-NH2 (thioether N-14) [Compound 42a] showed a Kd with human Granzyme B [6] of 2.6 nM. Regarding {CH2CO}-FNFEDQS[Pro(4S-Me)]DTWQPCG-NH2 (thioether N-14) [Compound 69a], in the experiment with human Granzyme B [7], the dissociation constant Kd worked out at 17.2 nM.

B1: Compound 25a (peptide)
peptide: {CH2CO}-FNFEDQSPDTWQPCG-NH2
modifications: thioether N-14
SMILES: C[C@@H](O)[C@@H]1NC(=O)[C@H](CC(=O)O)NC(=O)[C@@H]2CCCN2C(=O)[C@H](CO)NC(=O)[C@H](CCC(N)=O)NC(=O)[C@H](CC(=O)O)NC(=O)[C@H](CCC(=O)O)NC(=O)[C@H](Cc2ccccc2)NC(=O)[C@H](CC(N)=O)NC(=O)[C@H](Cc2ccccc2)NC(=O)CSC[C@@H](C(=O)NCC(N)=O)NC(=O)[C@@H]2CCCN2C(=O)[C@H](CCC(N)=O)NC(=O)[C@H](Cc2c[nH]c3ccccc23)NC1=O
Turning to B1, in the experiment with human Granzyme B [8], the “Human Granzyme B IC50 (fluorogenic substrate enzyme inhibition assay)” value was less than 8 nM. The molecule also came in with a Kd with human Granzyme B [9] of 2.8 nM.

B2: Compound 38a (peptide)
peptide: {CH2CO}-FNFEDQS[Pro(trans-4-F)]DTWQPCG-NH2
modifications: thioether N-14
SMILES: C[C@@H](O)[C@@H]1NC(=O)[C@H](CC(=O)O)NC(=O)[C@@H]2C[C@@H](F)CN2C(=O)[C@H](CO)NC(=O)[C@H](CCC(N)=O)NC(=O)[C@H](CC(=O)O)NC(=O)[C@H](CCC(=O)O)NC(=O)[C@H](Cc2ccccc2)NC(=O)[C@H](CC(N)=O)NC(=O)[C@H](Cc2ccccc2)NC(=O)CSC[C@@H](C(=O)NCC(N)=O)NC(=O)[C@@H]2CCCN2C(=O)[C@H](CCC(N)=O)NC(=O)[C@H](Cc2c[nH]c3ccccc23)NC1=O
On to B2, for which, in the experiment with human Granzyme B [8], the “Human Granzyme B IC50 (fluorogenic substrate enzyme inhibition assay)” value was less than 8 nM. This molecule also showed a Kd with human Granzyme B [10] of 0.7 nM. As to {CH2CO}-FN[Phe(4-F)]EDQSPDTWQPCG-NH2 (thioether N-14) [Compound 40a], the Kd with human Granzyme B [11] was determined as 1.8 nM. The molecule {CH2CO}-FNFEDQS[Pro(cis-4-F)]DTWQPCG-NH2 (thioether N-14) [Compound 62a] registered a dissociation constant Kd with human Granzyme B [12] of 6.7 nM.

Consider {CH2CO}-FNFEDQSPDTWQ[Pro(4S-Me)]CG-NH2 (thioether N-14) [Compound 41a], for which binding in the experiment with human Granzyme B [13] was characterised by a dissociation constant (Kd) of 2.5 nM.
